Source: patent US10753947B2, “Methods for screening voltage-gated proteins” (D.E. Shaw Research, LLC, priority 2012, dated 2020)

Experiments:
[1] = biological target: T1, Kv2.2 (Homo sapiens, UniProt Q92953); conditions: Table 5; read-out: IC50, channel Kv2.2; cited from earlier work
T1 sequence (Q92953 1-911): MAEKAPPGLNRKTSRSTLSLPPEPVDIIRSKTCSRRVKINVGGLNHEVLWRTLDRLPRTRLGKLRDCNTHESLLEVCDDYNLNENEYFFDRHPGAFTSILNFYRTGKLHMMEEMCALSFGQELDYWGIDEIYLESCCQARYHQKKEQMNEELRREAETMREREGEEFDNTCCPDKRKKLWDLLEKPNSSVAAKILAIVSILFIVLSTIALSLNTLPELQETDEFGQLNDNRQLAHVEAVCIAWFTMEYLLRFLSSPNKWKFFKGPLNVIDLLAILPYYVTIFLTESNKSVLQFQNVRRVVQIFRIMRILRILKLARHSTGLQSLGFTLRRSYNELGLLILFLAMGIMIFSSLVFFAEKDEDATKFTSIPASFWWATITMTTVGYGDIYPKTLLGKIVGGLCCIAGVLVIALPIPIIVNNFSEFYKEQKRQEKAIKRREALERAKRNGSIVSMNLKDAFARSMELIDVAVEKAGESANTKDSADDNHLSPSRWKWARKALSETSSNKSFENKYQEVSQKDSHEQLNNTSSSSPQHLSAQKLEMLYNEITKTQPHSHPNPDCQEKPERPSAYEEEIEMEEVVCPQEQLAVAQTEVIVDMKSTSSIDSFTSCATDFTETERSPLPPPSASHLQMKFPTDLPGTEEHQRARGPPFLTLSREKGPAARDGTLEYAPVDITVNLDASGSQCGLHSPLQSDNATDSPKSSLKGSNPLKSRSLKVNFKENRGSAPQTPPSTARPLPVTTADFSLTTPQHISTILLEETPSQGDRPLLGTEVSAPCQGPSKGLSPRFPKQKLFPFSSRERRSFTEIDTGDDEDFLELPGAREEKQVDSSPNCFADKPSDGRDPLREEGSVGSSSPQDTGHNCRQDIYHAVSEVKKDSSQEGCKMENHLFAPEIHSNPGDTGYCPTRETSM

[2] = biological target: T2, Kv2.1 channel in pancreatic β-cells (Homo sapiens, UniProt Q14721); conditions: cited from earlier work
T2 construct: host or cells: pancreatic β-cells (endogenous channel)
T2 sequence (Q14721 1-858): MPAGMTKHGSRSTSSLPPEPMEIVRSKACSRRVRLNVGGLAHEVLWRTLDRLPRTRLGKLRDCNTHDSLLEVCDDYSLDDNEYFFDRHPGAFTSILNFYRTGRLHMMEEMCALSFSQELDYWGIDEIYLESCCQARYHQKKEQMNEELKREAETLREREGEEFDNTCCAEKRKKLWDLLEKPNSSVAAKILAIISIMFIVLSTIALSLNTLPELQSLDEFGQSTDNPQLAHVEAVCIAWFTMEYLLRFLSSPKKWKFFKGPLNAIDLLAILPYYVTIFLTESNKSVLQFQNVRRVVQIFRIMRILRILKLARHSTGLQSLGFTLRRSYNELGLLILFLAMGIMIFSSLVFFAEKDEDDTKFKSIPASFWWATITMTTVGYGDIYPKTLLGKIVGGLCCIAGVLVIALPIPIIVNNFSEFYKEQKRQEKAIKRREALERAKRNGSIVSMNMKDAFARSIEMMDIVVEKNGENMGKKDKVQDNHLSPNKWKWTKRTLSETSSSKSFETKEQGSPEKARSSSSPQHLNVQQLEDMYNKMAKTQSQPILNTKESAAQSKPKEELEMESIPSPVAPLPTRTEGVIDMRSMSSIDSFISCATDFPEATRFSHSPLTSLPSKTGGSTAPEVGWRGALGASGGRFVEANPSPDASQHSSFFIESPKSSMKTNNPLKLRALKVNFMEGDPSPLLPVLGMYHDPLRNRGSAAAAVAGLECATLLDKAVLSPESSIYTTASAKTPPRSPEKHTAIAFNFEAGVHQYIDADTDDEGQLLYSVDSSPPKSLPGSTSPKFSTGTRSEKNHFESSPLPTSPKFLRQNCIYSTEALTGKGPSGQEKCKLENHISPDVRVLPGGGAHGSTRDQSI

[3] = biological target: Kv1.1 (Homo sapiens, UniProt Q09470); conditions: Table 5; read-out: IC50, channel Kv1.1; cited from earlier work
[4] = tested on: KV2.1 wild-type base construct (hKv2.1-m7-c3); assay: Alpha currents (Iα) of Kv2.1 WT base construct in Xenopus oocytes, two electrode voltage-clamp; assay type: cell-based, human; conditions: 1 nM AgTx2, WT
Experimental: The coding cDNAs of KV2.1 “wild-type” (hereinafter WT) base construct (hKv2.1-m7-c3 is human Kv2.1, residues 1-858, mutated to confer AgTx2 sensitivity and to remove extracellular cysteine residues) was synthesized (Entelchon GmbH) and cloned into the high expression vector pBSTA.
Transcripted cRNA was produced using the mMessage mMachine kit (Ambion Inc.). Two to four days past injection of cRNA into stage V-VI Xenopus oocytes (NASCO) potassium currents through the alpha pore (Iα) were recorded with the two electrode voltage-clamp technique making use of a TURBO TEC-05× amplifier (npi electronic GmbH). Currents were filtered at 10 kHz and sampled at 20 kHz. The bath solution contained (in mM): NaCl 96, KCl 2, CaCl2 1, MgCl2 1 and HEPES 5 (pH 7.5). Voltage-recording and current-injecting microelectrodes were filled with 3 M KCl and pulled to have resistances between 0.2 and 1 MΩ (see Stork et al., 2007). The pClamp software package v.10.1 (Molecular Devices, Inc.) was used for data acquisition and analysis.
For recording of alpha currents (Iα), 100 ms pulses were applied from ˜60 to +60 mV in 10 mV steps at 1 Hz from a holding potential of ˜80 mV to the Kv2.1 channel constructs to measure alpha currents (Iα). Passive leak currents were subtracted online using a P/4 procedure: pClamp software generates a series of scaled-down replica sweeps of the main stimulus waveform. […]

Chain of Kv1.1 (Q09470 whole entry): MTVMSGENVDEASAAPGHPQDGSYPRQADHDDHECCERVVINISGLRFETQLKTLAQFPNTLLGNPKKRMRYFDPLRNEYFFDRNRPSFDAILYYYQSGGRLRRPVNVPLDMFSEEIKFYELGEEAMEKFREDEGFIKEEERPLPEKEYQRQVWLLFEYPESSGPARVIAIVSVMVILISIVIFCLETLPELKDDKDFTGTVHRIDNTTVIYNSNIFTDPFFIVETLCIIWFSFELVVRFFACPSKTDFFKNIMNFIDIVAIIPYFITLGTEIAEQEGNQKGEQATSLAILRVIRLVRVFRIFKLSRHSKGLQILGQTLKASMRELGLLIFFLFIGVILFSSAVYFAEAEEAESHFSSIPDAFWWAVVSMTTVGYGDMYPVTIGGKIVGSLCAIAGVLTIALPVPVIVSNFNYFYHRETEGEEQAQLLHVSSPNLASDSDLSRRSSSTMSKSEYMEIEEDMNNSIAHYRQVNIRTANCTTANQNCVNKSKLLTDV

Substance | IC50 [1] [nM] | Inhibits the Kv2.1 channel in pancreatic β-cells [2] | IC50 [3] [nM] | Mean inhibition of the maximal outward current at +60 mV [4] [%]
Guangxitoxin (EGECGGFWWKCGSGKPACCPKYVCSPKWGLCNFPMP) [GxTx-1E] | 2.6 | nanomolar range |  | 
Agitotoxin-2 (GVPINVSCTGSPQCIKPCKDAGMRFGKCMNRKCHCTPK) [AgTx2] |  |  | 0.044 | 66.5±2.9
